Assay results reported in patent US20090297535A1 (Ablynx, published 2009).
Read-outs that look alike come from different tables or passages of the source.

Tests used:
recombinant human IL6 [1] = molecular target: T1, recombinant human IL6 (human, UniProt P05231 30-212); experiment: cell-based or functional assay
recombinant human IL6 [2] = molecular target: T1, recombinant human IL6; experiment: SPR, Biacore 3000; IL6 amine-coupled on CM5 chip, periplasmic extract injected
Protocol: Off-rate analysis of Nanobodies binding to IL6 was done by surface plasmon resonance on a Biacore 3000 instrument. Recombinant human IL6 was covalently bound to a CM5 sensor chip via amine coupling at a density of ˜500 RU. Remaining reactive groups were inactivated. Periplasmic extracts prepared from E. coli cells expressing anti-IL6 Nanobodies were diluted 10 or 15-fold and injected for 4 min to allow for binding to IL6 immobilized on the chip. Buffer without Nanobody was sent over the chip for 30 min to allow for spontaneous dissociation of bound Nanobody. The dissociation phase was used to calculate the koff values for each individual Nanobody (table B-1).

recombinant human IL6 [3] = molecular target: T1, recombinant human IL6; experiment: Alphascreen competition: Nanobody titrated against 3 nM biotinylated human IL6; blocked partner IL6R (1 nM) captured on acceptor beads coated with anti-IL6R MAb BN-12; streptavidin donor beads; readout cps
Protocol: Purified samples of Nanobodies PMP6B6, PMP7G5, PMP7G9 and PMP7G4 were analyzed in Alphascreen for their ability to inhibit the interaction between IL6 and IL6R. In this assay, various concentrations of anti-IL6 Nanobodies ranging from 1 uM to 10 pM were incubated with 3 nM biotinylated human IL6 for 15 min in a 384-wells plate. Subsequently a mixture of IL6R (1 nM) and acceptor beads (20 ug/ml) coated with anti-IL6R MAb BN-12 (Diaclone) were added and incubated for 30 min. Finally, streptavidin coated donor beads (20 ug/ml) were added. After 1 hour of incubation plates were read on the Envison Alphascreen reader (PerkinElmer). All experiments were performed in duplicate.

recombinant human IL6 [4] = molecular target: T1, recombinant human IL6; experiment: cell-based or functional assay; remark: listed apart in the source

B1: PMP6B12 (VHH)
VHH: AVQLVESGGGLVQPGGSLRLSCAASGFTLAYYAIGWFRQAPGKEREGVSCISSSVGTTYYSDSVKGRFTISRDNAKNTVYLQMNSLKPEDTAVYYCVRSSWFDCGVQGRDLGNEYDYRGQGTQVTVSS
notes: Monovalent Nanobody
IC50, inhibition of proliferation of the murine hybridoma cell line B9 (B9 assay, cell proliferation normalized) (recombinant human IL6 [1]): 0.028 nM | koff (recombinant human IL6 [2]): 0.00027 s⁻¹

B2: PMP6B6 (VHH)
VHH: QVQLVESAGGLVQPGGSLRLSCAASGIIFSINAMGWYRQAPGKRRELVADIMPYGSTEYADSVKGRFTISRDNAKNTVYLQMNSLKPEDTAVYYCHSYDPRGDDYWGQGTQVTVSS
notes: Monovalent Nanobody
IC50, inhibition of proliferation of the murine hybridoma cell line B9 (B9 assay, cell proliferation normalized) (recombinant human IL6 [1]): 0.003 nM | koff (recombinant human IL6 [2]): 0.000433 s⁻¹ | IC50 (recombinant human IL6 [3]): 2 nM

B3: PMP7G4 (VHH)
VHH: AVQLVESGGGLVQPGGSLRLSCAASGSIFSRLAMDWYRQAPGKQRELVASISRSGTTMAADSVKGRFTISRDNAENMVYLQMNSLKPEDTAVYVCMAFDGYSGSDYWGRGTQVTVSS
notes: Monovalent Nanobody
IC50, inhibition of proliferation of the murine hybridoma cell line B9 (B9 assay, cell proliferation normalized) (recombinant human IL6 [1]): 0.421 nM | koff (recombinant human IL6 [2]): 0.00208 s⁻¹ | IC50 (recombinant human IL6 [3]): 2.5 nM

B4: PMP6E10 (VHH)
VHH: QVKLEESGGGLVQAGGSLRLSCVVSGRTFSPYTIAWFRQAPGKEREFVTTIIGSDRSTDLDGDTYYADSVRGRFTISRNDAKNTVFLQMSSLKPEDTAVYYCALTGKGYVFTPNEYDYWGQGTQVTVSS
notes: Monovalent Nanobody
IC50, inhibition of proliferation of the murine hybridoma cell line B9 (B9 assay, cell proliferation normalized) (recombinant human IL6 [1]): 1.07 nM | koff (recombinant human IL6 [2]): 0.000545 s⁻¹

B5: PMP7G5 (VHH)
VHH: QVKLEESGGGLVQPGGSLRLSCAASGSISRFNIMGWYRQAPGKQRELVADITNGGTTMYADSVKGRFTISRDNTKNTVYLQMNSLKPEDTAVYYCHTYYPTTGFDDWGQGAQVTVSS
notes: Monovalent Nanobody
IC50, inhibition of proliferation of the murine hybridoma cell line B9 (B9 assay, cell proliferation normalized) (recombinant human IL6 [1]): 0.017 nM | koff (recombinant human IL6 [2]): 0.000412 s⁻¹ | IC50 (recombinant human IL6 [3]): 6.1 nM

B6: PMP21E7 (VHH)
VHH: AVQLVESGGGLVQAGGSLRLSSVVSGGTFSSYPIAWFRQPPGKEREFVAAISWRGGNTYYADSVKGRFTISRDNAKNTVYLQMNSLKPEDTAVYYSAAERAGVLLTKVPEGYDYWGQGTQVTVSS
notes: Monovalent Nanobody
IC50, inhibition of proliferation of the murine hybridoma cell line B9 (B9 assay, cell proliferation normalized) (recombinant human IL6 [4]): 0.05 nM | koff (recombinant human IL6 [2]): 0.000772 s⁻¹

B7: PMP10C4 (VHH)
VHH: AVQLVDSGGGLVQAGGSLRLSCAASGRSFSNYHMVWFRQAPGKEREFVAAASGSTSSTYYADSVKGRFTISRDNAKNTVYLQMNSLKPEDTAVYYCAAVAGLLLPRVAEGMDYWGKGTLVTVSS
notes: Monovalent Nanobody
IC50, inhibition of proliferation of the murine hybridoma cell line B9 (B9 assay, cell proliferation normalized) (recombinant human IL6 [4]): 0.961 nM | koff (recombinant human IL6 [2]): 0.00082 s⁻¹

B8: PMP21B4 (VHH)
VHH: QVQLVESGGGLVQAGDSLRVACAASGRTFSIDAMAWFRQAPGKEREFVSTMNWSTGATYYADSVKGRFTSSRDNAKSTSYLQMNSLKPEDTAVYYCAAARGLLIATDARGYDYWGQGTQVTVSS
notes: Monovalent Nanobody
IC50, inhibition of proliferation of the murine hybridoma cell line B9 (B9 assay, cell proliferation normalized) (recombinant human IL6 [4]): 1.86 nM | koff (recombinant human IL6 [2]): 0.000658 s⁻¹

B9: PMP7G9 (VHH)
VHH: QVQLVESGGGLVQPGGSLRLSCAASGFSLDYYGVGWFRQAPGKEREGVSCISSSDGDTYYADSVKGRFTISRDNAKNTVYLQMNSLKPEDTAVYYCATDLSDYGVCSRWPSPYDYWGQGTQVTVSS
notes: Monovalent Nanobody
IC50, inhibition of proliferation of the murine hybridoma cell line B9 (B9 assay, cell proliferation normalized) (recombinant human IL6 [1]): 0.385 nM | koff (recombinant human IL6 [2]): 0.00287 s⁻¹ | IC50 (recombinant human IL6 [3]): 3.4 nM

B10: PMP13F12 (VHH)
VHH: AVQLVDSGGGLVQAGGSLRLSCAASGRTFSSSPMGWFRQAPGKEREFVAAISGRSGNTYYADSVKGRFTISRDNAKNTVYLQMNSLKPEDTAVYYCAAERVGLLLTVVAEGYDYWGQGTQVTVSS
notes: Monovalent Nanobody
IC50, inhibition of proliferation of the murine hybridoma cell line B9 (B9 assay, cell proliferation normalized) (recombinant human IL6 [4]): 0.008 nM | koff (recombinant human IL6 [2]): 3.66e-05 s⁻¹

B11: PMP17C4 (VHH)
VHH: AVQLVDSGGGLVQAGDSLRLSCAASGRTFSNYAMAWFRQAPGKEREFVAVISYAGGRTYYADSVKGRFTISRDNAKNTVYLQMNSLKPEDTAVYYCAAVDSPLIATHPRGYDYWGQGTQVTVSS
notes: Monovalent Nanobody
IC50, inhibition of proliferation of the murine hybridoma cell line B9 (B9 assay, cell proliferation normalized) (recombinant human IL6 [4]): 0.064 nM | koff (recombinant human IL6 [2]): 0.00137 s⁻¹

B12: PMP21H1 (VHH)
VHH: QVQLVESGGGLVQTGGSLRLSCAASGSTFSKHHATGWFRQAPGKEREFVAALNWSGGNTYYTDSVKGRFTISRDNAQNTVYLQMNSLKPEDTAVYYCAAGSYVFYFTVRDQYDYWGQGTQVTVSS
notes: Monovalent Nanobody
IC50, inhibition of proliferation of the murine hybridoma cell line B9 (B9 assay, cell proliferation normalized) (recombinant human IL6 [4]): 2.58 nM | koff (recombinant human IL6 [2]): 0.00124 s⁻¹

B13: PMP10A6 (VHH)
VHH: QVQLVESGGGLVQAGGSLRLSCASSGRTFSSYVMGWFRQTPGKEREFVSTINWSGSNGYYADSVKGRFTISRDNAKNTVYLQMNNLKPEDTAVYYCAASAGGFLVPRVGQGYDYWGQGTQVTVSS
notes: Monovalent Nanobody
IC50, inhibition of proliferation of the murine hybridoma cell line B9 (B9 assay, cell proliferation normalized) (recombinant human IL6 [4]): 0.332 nM | koff (recombinant human IL6 [2]): 0.00104 s⁻¹

B14: PMP17B11 (VHH)
VHH: QVQLVESGGGLVQAGGSLRLSCAASGPTFSTYAMGWFRQAPGKEREFVAAISWSGANTYYADSVKGRFTISRDNAKNTVYLRMNSLKPEDTAAYYCAASAIIEGFQDSIVIFSEAGYDYWGQGTQVTVSS
IC50, inhibition of proliferation of the murine hybridoma cell line B9 (B9 assay, cell proliferation normalized) (recombinant human IL6 [4]): 0.702 nM | koff (recombinant human IL6 [2]): 0.00133 s⁻¹
